Measurements from publication PMC10397247.

Experiments:
4H1406-bH = target: T1, 4H1406-bH; assay: two-hybrid library CCNG1;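 further: natural log of median RNA to DNA barcode read ratio; higher means stronger binding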
T1 chain: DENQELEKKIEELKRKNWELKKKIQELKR

4H4038-bH = target: T2, 4H4038-bH; assay: two-hybrid library CCNG1;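 further: natural log of median RNA to DNA barcode read ratio; higher means stronger binding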
T2 chain: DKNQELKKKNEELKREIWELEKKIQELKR

4H3592-bH = target: T3, 4H3592-bH; assay: two-hybrid library CCNG1;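 further: natural log of median RNA to DNA barcode read ratio; higher means stronger binding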
T3 chain: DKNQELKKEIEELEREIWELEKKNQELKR

4H3601-bH = target: T4, 4H3601-bH; assay: two-hybrid library CCNG1;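 further: natural log of median RNA to DNA barcode read ratio; higher means stronger binding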
T4 chain: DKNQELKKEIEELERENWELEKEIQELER

4H3907-bH = target: T5, 4H3907-bH; assay: two-hybrid library CCNG1
T5 chain: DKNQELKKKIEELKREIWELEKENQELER

O6-bP = target: T6, O6-bP; assay: two-hybrid library CCNG1
T6 chain: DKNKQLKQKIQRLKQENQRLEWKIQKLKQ

O8-bP = target: T7, O8-bP; assay: two-hybrid library CCNG1
T7 chain: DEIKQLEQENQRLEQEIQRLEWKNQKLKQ

O5-bP = target: T8, O5-bP; assay: two-hybrid library CCNG1
T8 chain: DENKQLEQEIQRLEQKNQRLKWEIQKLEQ

O9-bP = target: T9, O9-bP; assay: two-hybrid library CCNG1
T9 chain: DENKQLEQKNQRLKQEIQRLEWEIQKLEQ

O15-bP = target: T10, O15-bP; assay: two-hybrid library CCNG1
T10 chain: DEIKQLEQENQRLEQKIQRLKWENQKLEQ

O2-bP = target: T11, O2-bP; assay: two-hybrid library CCNG1
T11 chain: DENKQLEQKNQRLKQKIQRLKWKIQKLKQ

O7-bP = target: T12, O7-bP; assay: two-hybrid library CCNG1
T12 chain: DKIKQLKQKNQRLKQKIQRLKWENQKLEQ

O16-bP = target: T13, O16-bP; assay: two-hybrid library CCNG1
T13 chain: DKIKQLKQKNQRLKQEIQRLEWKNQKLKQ

O4-bP = target: T14, O4-bP; assay: two-hybrid library CCNG1
T14 chain: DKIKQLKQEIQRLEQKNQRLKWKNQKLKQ

O13-bP = target: T15, O13-bP; assay: two-hybrid library CCNG1
T15 chain: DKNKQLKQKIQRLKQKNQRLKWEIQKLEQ

O12-bP = target: T16, O12-bP; assay: two-hybrid library CCNG1
T16 chain: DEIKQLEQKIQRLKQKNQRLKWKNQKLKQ

O3-bP = target: T17, O3-bP; assay: two-hybrid library CCNG1
T17 chain: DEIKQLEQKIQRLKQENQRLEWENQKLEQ

O14-bP = target: T18, O14-bP; assay: two-hybrid library CCNG1
T18 chain: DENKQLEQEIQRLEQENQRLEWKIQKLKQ

4H3865-AA = target: T19, 4H3865-AA; assay: two-hybrid library CCmax; settings: mean of both orientations
T19 chain: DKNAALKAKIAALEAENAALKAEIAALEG

O5-AA = target: T20, O5-AA; assay: two-hybrid library CCmax; settings: mean of both orientations
T20 chain: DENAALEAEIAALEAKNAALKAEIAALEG

4H_BCR = target: T21, 4H_BCR; assay: two-hybrid library CCmax; settings: mean of both orientations
T21 chain: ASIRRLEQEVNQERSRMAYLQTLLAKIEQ

4H384-AA = target: T22, 4H384-AA; assay: two-hybrid library CCmax
T22 chain: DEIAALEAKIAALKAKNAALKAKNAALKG

O2-AA = target: T23, O2-AA; assay: two-hybrid library CCmax; settings: mean of both orientations
T23 chain: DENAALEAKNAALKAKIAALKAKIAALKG

4H43-AA = target: T24, 4H43-AA; assay: two-hybrid library CCmax; settings: mean of both orientations
T24 chain: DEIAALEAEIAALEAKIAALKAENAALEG

O1-AA = target: T25, O1-AA; assay: two-hybrid library CCmax; settings: mean of both orientations
T25 chain: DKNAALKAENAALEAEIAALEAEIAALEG

O6-AA = target: T26, O6-AA; assay: two-hybrid library CCmax; settings: mean of both orientations
T26 chain: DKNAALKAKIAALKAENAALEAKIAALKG

P9-AA = target: T27, P9-AA; assay: two-hybrid library CCmax; settings: mean of both orientations
T27 chain: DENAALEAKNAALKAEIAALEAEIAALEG

O3-AA = target: T28, O3-AA; assay: two-hybrid library CCmax; settings: mean of both orientations
T28 chain: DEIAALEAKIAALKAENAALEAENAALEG

O7-AA = target: T29, O7-AA; assay: two-hybrid library CCmax; settings: mean of both orientations
T29 chain: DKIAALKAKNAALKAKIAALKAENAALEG

4H697-AA = target: T30, 4H697-AA; assay: two-hybrid library CCmax; settings: mean of both orientations
T30 chain: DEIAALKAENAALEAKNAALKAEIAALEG

4H4038-AA = target: T31, 4H4038-AA; assay: two-hybrid library CCmax; settings: mean of both orientations
T31 chain: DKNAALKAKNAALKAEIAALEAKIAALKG

4H3905-AA = target: T32, 4H3905-AA; assay: two-hybrid library CCmax; settings: mean of both orientations
T32 chain: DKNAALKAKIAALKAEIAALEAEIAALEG

O13-AA = target: T33, O13-AA; assay: two-hybrid library CCmax; settings: mean of both orientations
T33 chain: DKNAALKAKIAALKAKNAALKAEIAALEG

O4-AA = target: T34, O4-AA; assay: two-hybrid library CCmax; settings: mean of both orientations
T34 chain: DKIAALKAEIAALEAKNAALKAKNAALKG

4H_APH = target: T35, 4H_APH; assay: two-hybrid library CCmax; settings: mean of both orientations
T35 chain: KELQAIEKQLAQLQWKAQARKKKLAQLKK

GCN2_T = assay: two-hybrid library CCmax; settings: mean of both orientations
P10-AA = target: T36, P10-AA; assay: two-hybrid library CCmax; settings: mean of both orientations
T36 chain: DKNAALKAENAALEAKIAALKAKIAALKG

O14-AA = target: T37, O14-AA; assay: two-hybrid library CCmax; settings: mean of both orientations
T37 chain: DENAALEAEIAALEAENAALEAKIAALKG

O11-AA = target: T38, O11-AA; assay: two-hybrid library CCmax; settings: mean of both orientations
T38 chain: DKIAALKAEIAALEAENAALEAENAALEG

4H_GCN4 = assay: two-hybrid library CCmax
Chain of 4H_GCN4 (chain, as listed by the source): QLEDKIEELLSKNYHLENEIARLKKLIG

4H982-AA = target: T39, 4H982-AA; assay: two-hybrid library CCmax; settings: mean of both orientations
T39 chain: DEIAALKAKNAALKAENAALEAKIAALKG

4H451-AA = target: T40, 4H451-AA; assay: two-hybrid library CCmax; settings: mean of both orientations
T40 chain: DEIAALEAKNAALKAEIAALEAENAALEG

O8-AA = target: T41, O8-AA; assay: two-hybrid library CCmax; settings: mean of both orientations
T41 chain: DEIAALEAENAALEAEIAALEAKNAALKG

4H510-AA = target: T42, 4H510-AA; assay: two-hybrid library CCmax; settings: mean of both orientations
T42 chain: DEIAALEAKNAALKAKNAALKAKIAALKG

DENQELEKKIEELKRKNWELKKKIQELKR [4H1406-bH]
interaction score (4H1406-bH): -0.652
interaction score (4H4038-bH): -0.136
interaction score (4H3592-bH): 1.08
interaction score (4H3601-bH): 0.0362
interaction score (4H3907-bH): 1.11

DEIKQLEQKIQRLKQKNQRLKWKNQKLKQ [O12-bP]
interaction score (O6-bP): -1.02
interaction score (O8-bP): -1.25
interaction score (O5-bP): -0.621
interaction score (O9-bP): 0.055
interaction score (O15-bP): -0.827
interaction score (O2-bP): -1.14
interaction score (O7-bP): -0.715
interaction score (O16-bP): -0.648
interaction score (O4-bP): 0.355
interaction score (O13-bP): -0.964
interaction score (O12-bP): -0.0984
interaction score (O3-bP): -1.45
interaction score (O14-bP): -0.196

DEIAALEAKIAALKAKNAALKAKNAALKG [4H384-AA]
interaction score (4H3865-AA): -0.294
interaction score (O5-AA): -0.778
interaction score (4H_BCR): -2.23
interaction score (4H384-AA): -1.34
interaction score (O2-AA): -1.68
interaction score (4H43-AA): 0.71
interaction score (O1-AA): -1.04
interaction score (O6-AA): -0.52
interaction score (P9-AA): -0.334
interaction score (O3-AA): 1.52
interaction score (O7-AA): -1.59
interaction score (4H697-AA): -1.86
interaction score (4H4038-AA): -1.15
interaction score (4H3905-AA): 0.75
interaction score (O13-AA): -1.52
interaction score (O4-AA): -0.235
interaction score (4H_APH): -1.66
interaction score (GCN2_T): -1.61
interaction score (P10-AA): -1.12
interaction score (O14-AA): 0.835
interaction score (O11-AA): 2.48
interaction score (4H_GCN4): -2.22
interaction score (4H982-AA): -1.63
interaction score (4H451-AA): -0.0732
interaction score (O8-AA): 0.295
interaction score (4H510-AA): -1.55
